According to US7070943B2 (priority 1998, dated 2006):

Tests used:
Type in all cases: cell-based, Human
U937 cells = assay: Cell cycle distribution and apoptotic (sub-G1) cells by DNA content flow cytometry; settings: U937, 170 nM
Experimental: FIG. 11 presents growth and viability curves (a) as well as cell cycle distribution (b) of U937 cells maintained in the absence (CTRL) and presence of 170 nM (2.0 μg/ml) ONCONASE® (ONC) for up to 72 h. The percentage of dead cells was estimated based on the trypan blue exclusion test. The percentage of cells in the respective phases was estimated flow cytometrically based on their DNA content. Apoptotic cells (Ap) were recognized as the cells with fractional DNA content (sub-G1), as previously described;
Anti-cyclin D3 mAb immunofluorescence in combination with DNA content was measured by multiparameter flow cytometry (a). The cells were growing either in the absence (Exp, exponential growth) or in the presence of 170 nM ONCONASE® for 48 hours (Onc). There were 48%, 38% and 14% of cells in G1, S, and G2/M in Exp culture compared with 64%, 24% and 13% cells in G1, S, and G2/M, respectively, in Onc culture. The scattergrams represent bivariate distributions of the cells with respect to their cyclin D3 vs. DNA content associated fluorescence intensities. The upper level of the isotype-matched control (mean fluorescence+3 standard deviations) is marked in the Exp panel with a dashed line. The bar plots represent the mean FITC (anti-cyclin D3 mAb) fluorescence values (arbitrary units) of the cells in different phases of the cycle (gated based on differences in DNA content as shown in the Exp panel), after subtraction of the background fluorescence, i.e., mean fluorescence of the same cells but stained with isotype-matched control IgG antibody. Western blots (b) show expression of cyclin D3 in control culture and in the culture treated with Onconase 48 h;
Following incubations in the absence or presence of ONCONASE®, the cells were washed with phosphate-buffered saline (PBS) and fixed in suspension in either ice-cold 80% ethanol or absolute methanol for up to 24 h. After fixation, the cells were washed twice with PBS and then suspended in 1 ml of 0.25% Triton X-100 (Sigma, St. Louis, Mo., USA) in PBS on ice for 5 min. The cells were then centrifuged (300 g, 5 min), the cell pellet suspended 100 μl PBS containing 0.5 μg of the anti-cyclin (or anti-CKI) mAb and 1% bovine serum albumin (BSA; Sigma), and incubated for 2 h at room temperature. Anti-cyclin D3 (clone G107-565); anti-cyclin E (clone HE12); anti-p16^INK4a (clone G175-405); and […] (clone SX118) and anti-p27^KIP1 (clone G173-524) mAbs, all were obtained from PharMingen (San Diego, Calif., USA). After incubation with the respective mAbs the cells were rinsed with PBS containing 1% BSA and incubated with the FITC-conjugated goat anti-mouse IgG antibody (Molecular Probes) diluted 1:30 in PBS containing 1% BSA for 30 min at room temperature in the dark. […]
Cellular fluorescence was measured with the ELITE ESP flow cytometer/cell sorter (Coulter, Miami, Fla., USA) using either argon ion laser (emission at 488 nm) alone or combined with helium-cadmium laser (emitting UV light). In the first case, fluorescence signals were collected using the standard configuration of the flow cytometer (green fluorescence, representing directly or indirectly FITC-labeled antibodies; red fluorescence representing CYCHROME® tagged anti-pRB^T mAb). In the second case, DNA content was analyzed based on DAPI fluorescence (blue emission) excited by UV light, while the anti-pRB^P− mAb (FITC) and anti-pRB^T (Cy-Chrome®) related emission was excited with blue light laser. […]

underphosphorylated pRB = assay: pRB phosphorylation in U937 cells, anti-pRB^P− mAb flow cytometry; settings: U937, 170 nM
Excerpt: Also shown are cells from the culture at higher cell density (>10^6 cells/ml) where proliferation declined because of cell crowding (d). The cells reacting with anti-pRB^P− were in G0/1 phase (open arrows). The dashed line indicates the upper level of background fluorescence, i.e. of the cells pretreated with alkaline phosphatase. The percentage of cells reacting with anti-pRB^P− mAb was increased in the ONCONASE®-treated and crowded cultures compared to the control. No significant changes in expression of pRB detected by the antibody that reacts with this protein regardless of its phosphorylation status (anti-pRB^T) were observed between ONCONASE®-treated and control cells (not shown).
The status of phosphorylation of pRB in individual cells was monitored using a combination of anti-pRB antibodies, one specifically detecting underphosphorylated pRB (anti-pRb^P− mAb) and another which reacts with total pRB, regardless of its phosphorylation (anti-pRB^T mAb). […] The cells were then rinsed with PBS containing 1% BSA and their pRB associated green (anti-pRB^P−) and red (anti-PRB^T) fluorescence was measured by flow cytometry.
Cellular fluorescence was measured with the ELITE ESP flow cytometer/cell sorter (Coulter, Miami, Fla., USA) using either argon ion laser (emission at 488 nm) alone or combined with helium-cadmium laser (emitting UV light). […]

p21^WAF1/CIP1 = assay: Western blot of p21^WAF1/CIP1 in U937 cells; settings: U937, 170 nM, 72 hours
Excerpt: To reveal specificity of the antibodies that were used, a standard immunoblotting procedure was used on cellular lysates.

B1: ONCONASE®: basic protein of 12,000 MW isolated from oocytes or early embryos of Rana pipiens, homologous to pancreatic RNase A (protein, UniProt P22069 1-104, looked up)
Protein P-30: QDWLTFQKKHITNTRDVDCDNIMSTNLFHCKDKNTFIYSRPEPVKAICKGIIASKNVLTTSEFYLSDCNVTSRPCKYKLKKSTNKFCVTCENQAPVHFVGVGSC
cells in G2/M (U937 cells; 48 hours (Exp culture 14%)): 13% | cells in S (U937 cells; 48 hours (Exp culture 38%)): 24% | cells in G1 (U937 cells; 48 hours (Exp culture 48%)): 64% | proportion of cells in G0/1 phase (U937 cells; after 72 h (from 47% in control)): ~70% | percentage of apoptotic cells (sub-G1) (U937 cells; up to 72 h (from 2%)): 6% | proportion of cells stainable with anti-pRB^P− (underphosphorylated pRB; 48 h (control 2.4%)): 40.5% | proportion of cells stainable with anti-pRB^P− (underphosphorylated pRB; 72 h (control 2.4%)): 43.3% | p21^WAF1/CIP1 band, Western blot (p21^WAF1/CIP1): band only in the ONCONASE®-treated cells
